The values that follow come from PMC13470446.

This assay deals with microtubule polymers. Conditions: domain or fragment; chains chain; Polymerised alpha/beta-tubulin heterodimers (one repeat given). Source is not printed (assay 'as previously described' in a cited paper); commercial mammalian brain tubulin is assumed, porcine taken as likeliest (bovine possible). Brain tubulin is an isotype mixture with heterogeneous PTMs (acetyl-Lys40, detyrosination, polyglutamylation); TUBA1B and the pig beta chain are representatives only. GT; modification not given.

As a reminder, the Kd is the constant that tells how readily two partners part at equilibrium.

B1: Smc5 hinge domain (residues 215–885), Q08204 215-885 (protein)
chain: LRELQGNEQSLQKDLDFKKAKIVHLRQESDKLRKSVESLRDFQNKKGEIELHSQLLPYVKVKDHKEKLNIYKEEYERAKANLRAILKDKKPFANTKKTLENQVEELTEKCSLKTDEFLKAKEKINEIFEKLNTIRDEVIKKKNQNEYYRGRTKKLQATIISTKEDFLRSQEILAQTHLPEKSVFEDIDIKRKEIINKEGEIRDLISEIDAKANAINHEMRSIQRQAESKTKSLTTTDKIGILNQDQDLKEVRDAVLMVREHPEMKDKILEPPIMTVSAINAQFAAYLAQCVDYNTSKALTVVDSDSYKLFANPILDKFKVNLRELSSADTTPPVPAETVRDLGFEGYLSDFITGDKRVMKMLCQTSKIHTIPVSRRELTPAQIKKLITPRPNGKILFKRIIHGNRLVDIKQSAYGSKQVFPTDVSIKQTNFYQGSIMSNEQKIRIENEIINLKNEYNDRKSTLDALSNQKSGYRHELSELASKNDDINREAHQLNEIRKKYTMRKSTIETLREKLDQLKREARKDVSQKIKDIDDQIQQLLLKQRHLLSKMASSMKSLKNCQKELISTQILQFEAQNMDVSMNDVIGFFNEREADLKSQYEDKKKFVKEMRDTPEFQSWMREIRSYDQDTKEKLNKVAEKYEEEGNFNLSFVQDVLDKLESEIAMVNHDES
On to B1, for which the Kd was found to be 0.69 µM.
